Reference: article PMC11218660, “Functional dissection of human cardiac enhancers and noncoding de novo variants in congenital heart disease”

Molecular target: T1, SRF (human, UniProt P11831 1-508)
T1 sequence: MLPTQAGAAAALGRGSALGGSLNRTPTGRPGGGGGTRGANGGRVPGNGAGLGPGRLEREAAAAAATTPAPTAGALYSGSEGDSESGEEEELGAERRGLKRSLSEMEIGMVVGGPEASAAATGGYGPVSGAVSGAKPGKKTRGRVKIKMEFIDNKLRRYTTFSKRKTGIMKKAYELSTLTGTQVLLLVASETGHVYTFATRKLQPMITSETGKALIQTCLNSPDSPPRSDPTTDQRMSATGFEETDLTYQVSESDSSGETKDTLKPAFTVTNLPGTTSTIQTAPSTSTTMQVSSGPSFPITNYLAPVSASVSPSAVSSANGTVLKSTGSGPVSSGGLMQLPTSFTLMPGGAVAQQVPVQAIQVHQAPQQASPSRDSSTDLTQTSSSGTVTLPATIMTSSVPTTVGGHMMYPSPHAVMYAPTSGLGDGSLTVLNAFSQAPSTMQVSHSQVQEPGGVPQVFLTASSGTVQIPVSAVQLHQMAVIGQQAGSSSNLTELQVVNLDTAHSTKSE
Assay: EMSA; EMSA: 150 mM KCl, 0.1 mM DTT, 0.1 mM EDTA, 10 mM Tris pH 7.4; 500-800 fmol probe, 0.1-2.0 ug protein in 15-20 ul; room temperature 20 min; 6% native PAGE, SYBR
Conditions: protein: recombinant; chain copies: 2; blunt

B1: GLB1L3-CRE REF (dsDNA)
DNA 1: GAGGGAGGGGAGCGATCTCTCCTTTCTTGGAGAAAATAGTATCGC
DNA 2: GCGATACTATTTTCTCCAAGAAAGGAGAGATCGCTCCCCTCCCTC
- binding result: binds

B2: ADAMTS6-CRE ALT (dsDNA)
DNA 1: AATGCATCTGCTTGCTTCATTTGGCAGATTCCTCAAGAGT
DNA 2: ACTCTTGAGGAATCTGCCAAATGAAGCAAGCAGATGCATT
- binding result: binds
